Assay results from US6653127B1, “Single-chain recombinant complexes of hepatitis C virus NS3 protease and NS4A cofactor peptide” (Schering Corporation, priority 1997, dated 2003).
Where a chain is given by its changes, count along the chain named. Names may count otherwise.

Tests used:
NS3 = NS3 (Hepatitis C virus genotype 1b, UniProt P26663); conditions: read-out: affinity for NS3 in solution; cited from earlier work
[1] = molecular target: Biotin-DTEDVVAC …-pY (streptavidin-tagged peptide) (Hepatitis C virus); test: SPR (BIAcore); 4G10 amine-coupled to the chip, streptavidin-tagged phosphotyrosine peptide injected, regeneration with 2 M MgCl2
[2] = molecular target: T1, 5A/5B (P8P8') substrate DTEDVVCC*SMSYTWTG-K
T1 chain: DTEDVVCCSMYTWTGK

[3] = tested on: 5A/5B (P8P8′) substrate DTEDVVCC*SMSYTWTG-K; test: Proteolytic activity by 1D-HPLC (reverse-phase) with 5A/5B substrate; format: biochemical, HCV Japanese (1b/BK) strain; conditions: for Km / kcat: 5A/5B substrate, room temperature, 60 min, footnote a for His-NS31-181 + NS4A Peptide: [E] = 0.25 μM, [NS4A Peptide] = 10 μM
Experimental: Following expression and purification, newly engineered recombinant species were assayed for proteolytic activity utilizing a 1D-HPLC (reverse-phase chromatography) technique. Assays were conducted using the 5A/5B (P8P8′) substrate DTEDVVCC*SMSYTWTG-K (SEQ ID NO: 25) in 25 mM Tris-HCl pH 7.5, 150 mM NaCl, 0.5 mM EDTA, 10 mM DTT, 10% glycerol, and 0.05% lauryl maltoside. Concentration of all proteins were determined by BIORAD dye method). […] Reactions were incubated at room temperature for 60 minutes and were quenched with an equal volume of 10% phosphoric acid. Following injection, cleavage products were monitored under a linear 0-80% acetonitrile gradient in 0.1% TFA. The product P1′P8′K peak areas were automatically converted to product quantity in nanomoles by a standard curve.
The various covalent NS4A-NS3 complexes whose proteolytic efficiency has been determined according to the above method, and the results of each determination, are shown in Table 1.

[4] = Size exclusion chromatography (aggregated vs monodispersed form); format: physicochemical; conditions: for period for which the complex remains monodispersed: 4° C.
Experimental: Two hundred μl of various purified proteins were applied to a calibrated Superdex-75 HR (1 cm×30 cm) FPLC column equilibrated with 25 mM HEPES, pH 7.4, 1M NaCl and 10% glycerol and 10 mM βME at 0.5 ml/min. The column was precalibrated using Pharmacia standard calibration proteins (BSA: 67 KDa; Ovalbumin: 43 KDa; Chymotrypsinogen A: 31 KDa; Ribonuclease A: 13.7 KDa). Protein elution was monitored at 280 nm.

[5] = Solubility judged by achievable concentration of the complex; format: physicochemical
Description: Thirteen representative embodiments of such mutant NS4A-NS3 complexes are disclosed in the Examples below. In some embodiments, the isoleucine at position 17 is mutated to lysine. One such mutant form is referred to as His-NS4A21-32-GSGS-NS33-181/I17K (SEQ ID NO: 2). In other embodiments, the same mutation is made at position 18. One such mutant form is referred to as His-NS4A21-32-GSGS-NS33-181/I18K (SEQ ID NO: 3). In yet other embodiments, the mutations are introduced at both positions. One such mutant is referred to as His-NS4A21-32-GSGS-NS33-181/I17K,I18K (SEQ ID NO: 4).
A “soluble” covalent complex as referred to herein is defined as a protein which will remain in solution after a high spin centrifugation step at 300,000×g in a standard ultracentrifuge in a buffer containing 25 mM HEPES, pH 7.6, 10% glycerol, 0.3 M NaCl, 10 mM βME.

[6] = molecular target: T2, His-NS31-181 (NS3 catalytic domain) (Hepatitis C virus (1b/BK strain), UniProt Q9WMX2 1027-1206); test: cell-based or functional assay
T2 chain: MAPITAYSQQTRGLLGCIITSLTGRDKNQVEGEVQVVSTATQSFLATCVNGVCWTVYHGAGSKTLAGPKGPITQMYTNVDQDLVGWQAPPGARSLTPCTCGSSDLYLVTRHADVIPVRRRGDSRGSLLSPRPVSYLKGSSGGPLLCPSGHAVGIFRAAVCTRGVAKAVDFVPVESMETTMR

Molecule: NS4A peptide: 13-19 residue NS4A peptide spanning the central hydrophobic domain of the full-length NS4A protein (KKGSVVIVGRIVLSGKPAIIPKK)
- Kd (NS3): 10 µM

Molecule: Anti-phosphotyrosine monoclonal antibody 4G10 (Upstate Biotechnology Inc.)
- % binding of tagged peptide after regeneration [1]: 100%

B1: NS31-631-NS4A1-54 (non-covalent full-length NS3 protease / NS4A complex) (protein)
chain 1: MAPITAYSQQTRGLLGCIITSLTGRDKNQVEGEVQVVSTATQSFLATCVNGVCWTVYHGAGSKTLAGPKGPITQMYTNVDQDLVGWQAPPGARSLTPCTCGSSDLYLVTRHADVIPVRRRGDSRGSLLSPRPVSYLKGSSGGPLLCPSGHAVGIFRAAVCTRGVAKAVDFVPVESMETTMRSPVFTDNSSPPAVPQSFQVAHLHAPTGSGKSTKVPAAYAAQGYKVLVLNPSVAATLGFGAYMSKAHGIDPNIRTGVRTITTGAPVTYSTYGKFLADGGCSGGAYDIIICDECHSTDSTTILGIGTVLDQAETAGARLVVLATATPPGSVTVPHPNIEEVALSNTGEIPFYGKAIPIEAIRGGRHLIFCHSKKKCDELAAKLSGLGINAVAYYRGLDVSVIPTIGDVVVVATDALMTGYTGDFDSVIDCNTCVTQTVDFSLDPTFTIETTTVPQDAVSRSQRRGRTGRGRRGIYRFVTPGERPSGMFDSSVLCECYDAGCAWYELTPAETSVRLRAYLNTPGLPVCQDHLEFWESVFTGLTHIDAHFLSQTKQAGDNFPYLVAYQATVCARAQAPPPSWDQMWKCLIRLKPTLHGPTPLLYRLGAVQNEVTLTHPITKYIMACMSADLEVVT
chain 2: STWVLVGGVLAALAAYCLTTGSVVIVGRIILSGRPAIVPDRELLYQEFDEMEEC
- Km [2]: 20 µM
- kcat [2]: 0.167 s⁻¹
- kcat/Km [2]: 8000 M⁻¹ s⁻¹

B2: His-NS4A21-32-GSGS-NS33-181/I17K (protein)
chain: MGSSHHHHHHSSGLVPRGSHMGSVVIVGRIILSGSGSITAYSQQTRGLLGCKITSLTGRDKNQVEGEVQVVSTATQSFLATCVNGVCWTVYHGAGSKTLAGPKGPITQMYTNVDQDLVGWQAPPGARSLTPCTCGSSDLYLVTRHADVIPVRRRGDSRGSLLSPRPVSYLKGSSGGPLLCPSGHAVGIFRAAVCTRGVAKAVDFVPVESMETTMRS
- Km [2]: 20 µM
- kcat [2]: 0.267 s⁻¹
- kcat/Km [2]: 14000 M⁻¹ s⁻¹
- kinetic properties compared with wild type [3]: identical to those of the wild type
- Km [3]: 20 ± 2 µM
- kcat [3]: 0.267 ± 0.05 s⁻¹
- dispersion state as judged by size exclusion chromatography [4]: monodispersed
- period for which the complex remains monodispersed [4]: about one week
- achievable concentration of the complex (solubility) [5]: 17 to 20 mg/mL

B3: His-NS4A21-32-GSGS-NS33-181 (protein)
chain: B2 chain with K52I
- Km [2]: 19 µM
- kcat [2]: 0.15 s⁻¹
- kcat/Km [2]: 8000 M⁻¹ s⁻¹

B4: His-NS4A21-32-GSGS-NS33-181/I17K,I18K (protein)
chain: B2 chain with I53K
- kinetic properties compared with wild type [3]: identical to those of the wild type
- dispersion state as judged by size exclusion chromatography [4]: monodispersed
- period for which the complex remains monodispersed [4]: about one week
- achievable concentration of the complex (solubility) [5]: 17 to 20 mg/mL

B5: His-NS4A21-32-GSGS-NS33-181/I18K (protein)
chain: B2 chain with K52I, I53K
- Km [2]: 22 µM
- kcat [2]: 0.167 s⁻¹
- kcat/Km [2]: 8000 M⁻¹ s⁻¹
- kinetic properties compared with wild type [3]: identical to those of the wild type
- Km [3]: 22 ± 2 µM
- kcat [3]: 0.167 ± 0.033 s⁻¹
- dispersion state as judged by size exclusion chromatography [4]: monodispersed
- period for which the complex remains monodispersed [4]: about one week
- achievable concentration of the complex (solubility) [5]: 17 to 20 mg/mL

B6: His-NS31-181 + NS4A Peptide (non-covalent complex) (protein)
chain 1: T2 chain
chain 2: KKGSVVIVGRIVLSGKPAIIPKK
- Km [2]: 80 µM
- kcat [2]: 0.05 s⁻¹
- kcat/Km [2]: 500 M⁻¹ s⁻¹

Molecule: KKGSVVIVGRIVLSGKPAIIPKK [4A peptide KKGSVVIVGRIVLSGKPAIIPKK]
- catalytic activity relative to full-length NS31-631-NS4A1-54 [6]: 8 fold lower
